Results: article PMC4164784, “4E-BPs require non-canonical 4E-binding motifs and a lateral surface of eIF4E to repress translation” (Nature Communications, 2014)
Where a chain is given by its changes, count along the chain named.

B1: 4E-T C+NC peptide fused C-terminally to GB1 (domain or fragment)
chain: RYSKVDLLALRYEGKSRQRPQCSTRLELQTLGFWKI
B2: CUP N-terminal fragment: CUP residues 1–402 (protein, UniProt Q9VMA3 1-402, looked up, fragment)
chain: MQMAEAEQENGAGALKIATNAGATDRPAHQQLPLPVEDQQDEVLTPAEKGKFEYPPPPPPPTPVQAPLATKATALNASQEHDDDEANSEKWEDPCAPPPPPPLPTSAFLATGLGYLKLPAFKLKDALEKAITKLEANKRTLKASPESSRSIKNKNVVALEMLPRRSNPETIGDGSMLASTSTAVMLQTKKPAVIVEMERRCKIINLLAKQNQILESISGEAIPMHGPSKHLHEDEGLTLQVLSARASTPYTQPSSMLSCTAVSCDLEHDSPRKQVASKEAVPEQQSSQVQQKRPPSTGIHKPGSLRAPKAVRPTTAPVVSSKPVKSYTRSRLMDIRNGMFNALMHRSKESFVMPRIATCDDIELEGRLRRMNIWRTSDGTRFRTRSTTANLNMNNNNNNECM
modifications: HA tag
B3: CUP C+NC peptide fused C-terminally to GB1 (domain or fragment, Drosophila melanogaster)
chain: STGIHKPGSLRAPKAVRPTTAPVVSSKPVKSYTRSRLMDIRNGMFNALMHRSKESFVMPRIATCDDIELEGRLRRMNIWRTSDGTRFRTRSTTANLNMNNNNNNECMPAFFKNKNKPNLISDESIIQSQP
notes: CUP, Drosophila melanogaster, canonical and non-canonical 4E-BMs; source: E. coli BL21 Star (DE3), purified (amylose, HRV3C cleavage, SEC); not shown: MBP, N-terminal, cleaved; GB1, C-terminal, kept
B4: Thor C+NC peptide fused C-terminally to GB1 (domain or fragment)
chain: TKLIYERAFMKNLRGSPLSQTPPSNVPSCLLRGT
B5: eIF4G peptide (residues 578–650) fused C-terminally to GB1 (domain or fragment, Drosophila melanogaster, UniProt O61380 578-650, looked up)
chain: PETTLNDKQDSTDLKVKVSAKISSIINYNEGQWSPNNPSGKKQYDREQLLQLREVKASRIQPEVKNVSILPQP
notes: eIF4G, Drosophila melanogaster, residues 578–650 (methods and legends); source: E. coli BL21 Star (DE3), purified (amylose, TEV cleavage, anion exchange, SEC); not shown: MBP, N-terminal, cleaved; GB1, C-terminal, kept
B6: Thor: Dm Thor full length (1–117), Q9XZ56, ortholog of 4E-BP1–3 (protein)
chain: MSASPTARQAITQALPMITRKVVISDPIQMPEVYSSTPGGTLYSTTPGGTKLIYERAFMKNLRGSPLSQTPPSNVPSCLLRGTPRTPFRKCVPVPTELIKQTKSLKIEDQEQFQLDL
modifications: left off: GFP, end not stated, kept

Tests used:
[1] = biological target: T1, eIF4E (residues 69–248) II-AA, purified (Drosophila melanogaster, UniProt P48598-2 69-248, Ile96 to Ala (II-AA) | Ile112 to Ala (II-AA)); assay: ITC; VP-ITC, 20 °C; eIF4E (69–248, WT or mutant, 1–20 μM) in the cell, tenfold concentrated GB1-stabilized peptides titrated in; 20 mM Na-phosphate pH 7.0, 150 mM NaCl; one-site binding model; conditions: both partners purified
T1 construct: eIF4E, Drosophila melanogaster, residues 69–248; also called eIF4E (II-AA); not shown: His6, N-terminal, cleaved
T1 sequence (looked up): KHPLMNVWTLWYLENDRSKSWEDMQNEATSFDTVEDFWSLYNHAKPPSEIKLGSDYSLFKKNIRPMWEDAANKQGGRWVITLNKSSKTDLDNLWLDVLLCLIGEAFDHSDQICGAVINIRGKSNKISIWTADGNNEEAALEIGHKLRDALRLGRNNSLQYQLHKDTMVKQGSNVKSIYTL

[2] = biological target: T2, eIF4E (residues 69–248), purified (Drosophila melanogaster, UniProt P48598-2 69-248); assay: as above; conditions: both partners purified
T2 construct: eIF4E, Drosophila melanogaster, residues 69–248; the methods say the tag was cleaved with HRV3C; also called truncated eIF4E; eIF4E trunc; not shown: His6, N-terminal, cleaved
T2 sequence (looked up): T1 sequence (looked up) with A28I, A44I

[3] = biological target: T3, SHN-eIF4E (full length, WT) (Drosophila melanogaster, UniProt P48598-2 1-248); assay: pull-down; 'kinetic assay': 1 μM purified SHN-eIF4E–GST-eIF4G complex prebound to Strep-Tactin beads, challenged with 5 μM (CUP, 4E-T) or 10 μM (Thor, eIF4G) competitor for the indicated times; 4 °C; conditions: both partners purified
T3 construct: eIF4E, Drosophila melanogaster; also called SHN-tagged eIF4E; SNH-tagged eIF4E; not shown: Strep-NusA-His (SHN), N-terminal, kept
T3 sequence (looked up): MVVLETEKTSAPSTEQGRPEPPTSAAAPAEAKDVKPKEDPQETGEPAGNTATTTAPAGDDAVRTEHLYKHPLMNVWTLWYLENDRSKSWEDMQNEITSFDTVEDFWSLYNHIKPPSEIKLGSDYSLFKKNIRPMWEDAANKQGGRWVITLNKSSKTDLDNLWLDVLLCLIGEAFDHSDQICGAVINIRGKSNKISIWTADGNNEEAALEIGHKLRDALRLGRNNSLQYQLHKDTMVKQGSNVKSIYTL

[4] = test system: firefly luciferase (F-Luc) reporter in S2 cells; assay: Translation repression assay, F-Luc reporter in S2 cells; format: cell-based, Drosophila melanogaster; conditions: coexpression (HA-CUP 1–402 0.05–0.2 μg, HA-Thor 0.1–0.5 μg plasmid; mutants at highest), 3 days, F-Luc activity normalized to mRNA, three independent experiments
Description: S2 cells were transfected in 6-well plates using Effectene transfection reagent (Qiagen) according to the manufacturers protocol. The transfection mixtures contained: 0.1 μg of F-Luc reporter plasmid (F-Luc-V5), 0.3 μg of control RNA reporter, and increasing amounts of plasmids expressing HA-CUP (fragment 1–402; 0.05–0.2 μg) and HA-Thor (full length, 0.1–0.5 μg). The plasmids expressing the corresponding mutants or the HA peptide control were transfected at the highest concentration. In all the experiments, the cells were collected three days after transfection. The F-Luc activity was measured using the Dual-Luciferase reporter assay system (Promega). The northern blotting was performed as previously described. The F-Luc mRNA levels were determined by northern blotting and were normalized to those of the control RNA. The normalized F-Luc mRNA levels were then used to normalize the F-Luc activity, to obtain translation efficiencies.

[5] = test system: eIF4E II-AA mutant (full length); assay: GST/MBP pull-down of full-length eIF4E II-AA mutant, coexpressed in E. coli; format: binding, Drosophila melanogaster; conditions: recombinant CUP (311–440), Thor (full length), 4E-T (1–58) or eIF4G (578–650), WT or mutant, SDS–PAGE
Description: For the pull-down assays shown in Fig. 3 and Supplementary Fig. 6a, the full-length His6- or SHN-tagged eIF4E (WT or II-AA mutant) was coexpressed with GST or MBP-tagged protein fragments, including CUP (residues 311–440), Thor (full length), 4E-T (residues 1–58) or eIF4G (residues 578–650) in E. coli BL21 (DE3) STAR cells in autoinducing medium[44] overnight at 20 °C. The cells were resuspended in lysis buffer (20 mM Tris–HCl (pH 7.5), 100 mM NaCl, 1 mM DTT) supplemented with EDTA-free protease inhibitor (Roche) and lysed by sonication. The cleared lysates were incubated for 1 h with 20 μl of Protino Glutathione Agarose 4B beads (Macherey-Nagel) or amylose resin (New England Biolabs). The beads were washed three times with lysis buffer, and the bound proteins were eluted with lysis buffer containing 25 mM L-glutathione or 25 mM maltose for 15 min. The proteins were analyzed by 10–15% SDS–PAGE followed by Coomassie blue staining.

[6] = test system: eIF4E II-AA (lateral surface mutant); assay: Coimmunoprecipitation with HA-eIF4E II-AA in S2 cells; format: cell-based, Drosophila melanogaster; conditions: HA-eIF4E II-AA vs WT, western blot
Description: (§1) The coimmunoprecipitations assays were performed as previously described. For the pull downs using m^7GTP beads, 25 μl of immobilized γ-aminophenyl-m^7GTP (C10-spacer—Jena Bioscience) beads was added to the cell lysates and the mixtures were rotated for 1 h at 4 °C. The beads were washed three times with NET buffer (50 mM Tris (pH 7.4), 150 mM NaCl, 1 mM EDTA and 0.1% Triton X-100). The bound proteins were eluted with 2 × SDS–polyacrylamide gel electrophoresis (SDS–PAGE) sample buffer and analyzed by western blotting (WB). All of the WB experiments were developed with the ECL western blotting detection system (GE Healthcare) as recommended by the manufacturer. The antibodies used in this study are listed in Supplementary Table 2.

[7] = test system: endogenous eIF4E and HA-tagged 4E-BPs in S2 cells; assay: Immunofluorescence localization in S2 cells; format: cell-based, Drosophila melanogaster
Description: S2 cells expressing HA-tagged versions of CUP, Thor and 4E-T or the indicated mutants were treated with Leptomycin B (100 nM; Sigma) or methanol as a control for 12 h. After the LMB treatment, the cells were allowed to adhere to poly-D-lysine–coated coverslips for 15 min and were fixed with 2% paraformaldehyde for 10 min. The cells were then permeabilized with 0.1% Triton X-100 in PBS (10 min) and stained with affinity-purified monoclonal anti-HA (Covance 1:1,000) and polyclonal anti-eIF4E (1:2,000) antibodies in PBS containing 1% BSA for 1 h. Alexa Fluor 594-labeled goat anti-rabbit and 488-labeled anti-mouse antibodies (Invitrogen) were used at dilutions of 1:1,000 and 1:2,000, respectively. The cells were mounted using Fluoromount-G (Southern Biotech). The images were acquired at room temperature using a confocal microscope (TCS SP2; Leica) that was fitted with a Plan-Apochromat × 100 NA 1.40 oil immersion objective and a series of three photomultipliers (Hamamatsu Photonics) controlled with the Leica confocal software (version 2.61). The images were prepared using Photoshop (Adobe). […]
Thor) independent experiments. […] Confocal fluorescent […]
micrographs of fixed S2 cells expressing HA-4E-T and GFP-Tral. The localization of HA-4E-T was determined by indirect immunofluorescence using an anti-HA antibody. The merged pictures show the HA signal in red and the GFP-Tral signal in green. Bar: 5 μm.

endogenous eIF4E = assay: Coimmunoprecipitation / m7GTP pull-down with endogenous eIF4E in S2 cell lysates; format: cell-based, Drosophila melanogaster; conditions: western blot
Description: as §1
Thor and 4E-T) or HA-eIF4G and endogenous eIF4E in S2 cell lysates. The proteins were immunoprecipitated using a polyclonal anti-eIF4E antibody (α-4E). The pre-immune (Pre-I) serum and an HA-tagged version of MBP served as negative controls. The inputs (1%) and immunoprecipitates (10%) were analyzed by western blotting using anti-HA and anti-eIF4E antibodies. (b,c) The interaction of HA-tagged full length 4E-BPs (CUP, Thor and 4E-T) and eIF4G with endogenous eIF4E was analyzed by coimmunoprecipitation using anti-HA antibodies (b) or by pull-down using m7GTP-Sepharose beads (c). HA-MBP served as a negative control. The inputs (10%) and immunoprecipitates (30%) were analyzed by western blotting using anti-HA and anti-eIF4E antibodies. (d) Western blot showing the interaction of HA-Thor (full-length either wild-type or mutants) with endogenous eIF4E in S2 cells. The proteins were immunoprecipitated using anti-HA antibodies and analyzed as described in (b,c). (e) Western blot showing the interaction of HA-4E-T (residues 1–511, wild-type or mutants) with endogenous eIF4E. The proteins were immunoprecipitated using anti-HA antibodies and analyzed as described in (b,c). The size markers (kDa) are shown to the right of each panel. Mutants are described in Supplementary Table 1.

| Molecule | Kd [1] | dH [1] | stoichiometry N [1] | Kd [2] | dH [2] | stoichiometry N [2] | time to 50% dissociation of prebound GST-eIF4G (fivefold molar excess of competitor) [3] | repression of F-Luc reporter expression (in words) [4] | half-life of the eIF4E–eIF4G complexes (tenfold molar excess of competitor) [3] | time to 50% dissociation of prebound GST-eIF4G (tenfold molar excess of competitor) [3] | binding to eIF4E II-AA mutant (in words) [5] | association with eIF4E II-AA (in words) [6] | nuclear accumulation of endogenous eIF4E upon LMB (in words) ([7]; S2 cells expressing 4E-BP or mutant, LMB 100 nM, 12 h) | localization of endogenous eIF4E (in words) ([7]; S2 cells overexpressing 4E-BP or mutant, −LMB) | nuclear accumulation of 4E-BP upon LMB (in words) ([7]; S2 cells, LMB 100 nM, 12 h) | localization of the 4E-BP (in words) ([7]; S2 cells, steady-state, −LMB) | interaction with endogenous eIF4E (in words) (endogenous eIF4E) |
| --- | --- | --- | --- | --- | --- | --- | --- | --- | --- | --- | --- | --- | --- | --- | --- | --- | --- |
| B1 | 8.8 nM | -12.9 ± 0.3 kcal/mol | 1.03 ± 0.04 | 5.6 nM | -22.8 ± 3 kcal/mol | 0.95 ± 0.01 | 22 min |  |  |  |  |  |  |  |  |  |  |
| B2 |  |  |  |  |  |  |  | inhibited the expression of the F-Luc reporter in a dose-dependent manner |  |  |  |  |  |  |  |  |  |
| B3 | 50 nM | -18.6 ± 0.7 kcal/mol | 0.98 ± 0.01 | 9.1 nM | -34.5 ± 0.35 kcal/mol | 1.05 ± 0.02 | 2.5 ± 0.5 min |  |  |  |  |  |  |  |  |  |  |
| B4 | 470 nM | -7.6 ± 0.3 kcal/mol | 0.97 ± 0.01 | 1.4 nM | -16.8 ± 1 kcal/mol | 0.95 ± 0.02 |  |  | 37 ± 9 min |  |  |  |  |  |  |  |  |
| B5 | 40 nM | -16.24 ± 0.04 kcal/mol | 1.03 ± 0.01 | 17 nM | -18.5 ± 2 kcal/mol | 0.99 ± 0.08 |  |  |  | 4 h |  |  |  |  |  |  |  |
| B6 |  |  |  |  |  |  |  | inhibited the expression of the F-Luc reporter in a dose-dependent manner |  |  | pulled down comparable amounts of WT and mutant eIF4E | disrupted the association | endogenous eIF4E accumulated in the nucleus | evenly distributed in the cytoplasm | partial nuclear accumulation | distributed evenly throughout the cytoplasm | interacted with endogenous eIF4E |
